Source: PMC7010297, “How the initiating ribosome copes with ppGpp to translate mRNAs” (PLoS Biology, 2020)
“And” between values parts separate entries of the source, which are not always exact repeats. Equal entries are not always repeated. Where two headings read alike, the source gives them in different places.

Tests used:
[1] = molecular target: 30S IC (Escherichia coli, UniProt P0A705); conditions: for T. initiation Average / T. initiation Replicates: Fig 7A
Protocol: Fig 7 SETIs and ppGpp tolerance. (A) Translation initiation efficiency as a function of mRNAs along five steps of transition from NS to S conditions. […] Symbols and error bars represent averages of three replicates and standard deviations, respectively (S1 Data). (C) Comparison of ppGpp tolerance as calculated from the ratio of translation initiation efficiencies found in the presence of 0.2 mM ppGpp over the efficiencies obtained in the absence of the alarmone (S1 Data). […] All 30S IC components are as in Fig 1. Dashed line indicates the average tolerance of all mRNAs lacking the SETI element.
The transition towards stringent response entails changes in the composition of all guanosine nucleotides. […] To inquire how the 30S IC responds during the transition from non-stringent (NS) to stringent (S) guanosine nucleotide conditions in the cell, we measured translation initiation along 5 combinations of guanosine nucleotides by thermophoresis, from NS to S conditions (Fig 7A).
The 30S complexes were reconstituted using pure subunits, IFs, tRNAi, mRNA, and nucleotides. The 30S subunits were reactivated by incubation in TAKM20 buffer (as TAKM3.5 but with 20 mM MgCl2) for 1 hour at 37°C prior to use. Generally, 30S ICs were formed by incubation at 37°C for 30 minutes in TAKM7 using 1 μM 30S subunits, 4 μM mRNA, 2 μM IF1, 1 μM IF2, 1.5 μM IF3, 0.5 μM Bpy-Met-tRNA^fMet, and 0.2 mM guanosine nucleotides, unless otherwise stated in the Results or figure captions. Ligand titrations were prepared using serial dilutions using 1:1 mixing of complexes containing the highest concentration of the titrant with complexes lacking only the ligand under investigation. The number of reactions were set up to cover a wide range of concentrations.
MST was measured on 10-μL reactions using standard capillaries (MO-K022, NanoTemper Technologies, Munich, Germany) on a Monolith NT.115 (NanoTemper Technologies, Munich, Germany) at monochromatic LED with power input of 30% and IR laser power of 40%. The local temperature perturbation was expected to be less than 3°C. All measurements were performed at room temperature (22 ± 2°C). Three to four replicates were measured for each investigated reaction to calculate mean and standard deviation. […] KD were calculated using a hyperbolic or quadratic function using Graphpad Prism 6.0 (GraphPad, San Diego, California) or software provided by NanoTemper.

[2] = tested on: mRNA translation (protein synthesis); assay: In vitro translation in pure cell-free system (PURExpress, Lumio labelling); format: biochemical; conditions: 2 mM ppGpp; Fig 6G

B1: mTufA: TufA mRNA with full-length 5′ UTR, in vitro transcribed, codes for EF-Tu (nucleic acid)
chain: GGUUCUAUCGCCUUUAAAGAAGGCUUUAAGAAAGCGAAACCAGUUCUGCUUGAGCCGAUCAUGAAGGUUGAAGUAGAAACUCCGGAAGAGAACACCGGUGACGUUAUCGGUGACUUGAGCCGUCGUCGUGGUAUGCUCAAAGGUCAGGAAUCUGAAGUUACUGGCGUUAAGAUCCACGCUGAAGUACCGCUGUCUGAAAUGUUCGGAUACGCAACUCAGCUGCGUUCUCUGACCAAAGGUCGUGCAUCAUACACUAUGGAAUUCCUGAAGUAUGAUGAAGCGCCGAGUAACGUUGCUCAGGCCGUAAUUGAAGCCCGUGGUAAAUAAGCCUAAGGGUUAAUACCAAAGUCCCGUGCUCUCUCCUGAAGGGGAGAGCACUAUAGUAAGGAAUAUAGCCGUGUCUAAAGAAAAAUUUGAACG
[1]; NS to S 1
  T. initiation Average: 81.23%
  T. initiation Replicates: 79.55% and 82.59% and 81.55%
[1]; NS to S 2
  T. initiation Average: 75.89%
  T. initiation Replicates: 72.98% and 77.43% and 77.26%
[1]; NS to S 3
  T. initiation Average: 60.14%
  T. initiation Replicates: 59.08% and 60.37% and 60.97%
[1]; NS to S 4
  T. initiation Average: 45.96%
  T. initiation Replicates: 44.86% and 46.36% and 46.65%
[1]; NS to S 5
  T. initiation Average: 23.01%
  T. initiation Replicates: 22.61% and 23.62% and 22.79%
[1]; S: 1 mM ppGpp, 0.25 mM pppGpp, 0.14 mM GTP, 0.05 mM GDP
  translation initiation efficiency (30S IC formation retained) at S conditions: 25%
[2]
  Translation Replicate: 0.27 a.u.
